Results taken from publication PMC5714204.

Assays:
Assay in all cases: fluorescence polarization
RNase R 1H = biological target: T1, RNase R 1H (Escherichia coli BL21(DE3), UniProt P21499 1-523+=AQPTGFLDSRIRRFQS+545-813, internal_change)
T1 sequence: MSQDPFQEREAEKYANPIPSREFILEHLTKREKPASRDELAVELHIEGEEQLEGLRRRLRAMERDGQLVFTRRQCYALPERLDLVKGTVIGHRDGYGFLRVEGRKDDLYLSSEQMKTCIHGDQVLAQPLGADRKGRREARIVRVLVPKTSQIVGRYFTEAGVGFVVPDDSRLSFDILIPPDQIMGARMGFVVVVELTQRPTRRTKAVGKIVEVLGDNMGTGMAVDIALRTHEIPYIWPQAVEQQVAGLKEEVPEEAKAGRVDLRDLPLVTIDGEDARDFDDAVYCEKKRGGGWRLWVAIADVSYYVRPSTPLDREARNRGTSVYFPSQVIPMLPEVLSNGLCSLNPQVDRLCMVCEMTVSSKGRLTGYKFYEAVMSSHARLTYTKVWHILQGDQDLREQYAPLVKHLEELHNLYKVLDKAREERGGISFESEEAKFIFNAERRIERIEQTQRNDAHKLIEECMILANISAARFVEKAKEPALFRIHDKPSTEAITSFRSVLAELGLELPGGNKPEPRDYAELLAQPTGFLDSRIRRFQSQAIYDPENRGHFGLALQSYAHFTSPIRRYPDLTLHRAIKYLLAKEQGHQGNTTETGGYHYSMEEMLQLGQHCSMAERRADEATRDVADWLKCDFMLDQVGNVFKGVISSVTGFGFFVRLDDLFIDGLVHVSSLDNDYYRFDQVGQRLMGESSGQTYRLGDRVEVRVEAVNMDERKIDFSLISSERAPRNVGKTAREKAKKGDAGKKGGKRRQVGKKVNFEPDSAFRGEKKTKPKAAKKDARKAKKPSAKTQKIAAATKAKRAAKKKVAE

RNase R (full-length) = biological target: T2, RNase R (full-length) (Escherichia coli BL21(DE3), UniProt P21499 1-813)
T2 sequence: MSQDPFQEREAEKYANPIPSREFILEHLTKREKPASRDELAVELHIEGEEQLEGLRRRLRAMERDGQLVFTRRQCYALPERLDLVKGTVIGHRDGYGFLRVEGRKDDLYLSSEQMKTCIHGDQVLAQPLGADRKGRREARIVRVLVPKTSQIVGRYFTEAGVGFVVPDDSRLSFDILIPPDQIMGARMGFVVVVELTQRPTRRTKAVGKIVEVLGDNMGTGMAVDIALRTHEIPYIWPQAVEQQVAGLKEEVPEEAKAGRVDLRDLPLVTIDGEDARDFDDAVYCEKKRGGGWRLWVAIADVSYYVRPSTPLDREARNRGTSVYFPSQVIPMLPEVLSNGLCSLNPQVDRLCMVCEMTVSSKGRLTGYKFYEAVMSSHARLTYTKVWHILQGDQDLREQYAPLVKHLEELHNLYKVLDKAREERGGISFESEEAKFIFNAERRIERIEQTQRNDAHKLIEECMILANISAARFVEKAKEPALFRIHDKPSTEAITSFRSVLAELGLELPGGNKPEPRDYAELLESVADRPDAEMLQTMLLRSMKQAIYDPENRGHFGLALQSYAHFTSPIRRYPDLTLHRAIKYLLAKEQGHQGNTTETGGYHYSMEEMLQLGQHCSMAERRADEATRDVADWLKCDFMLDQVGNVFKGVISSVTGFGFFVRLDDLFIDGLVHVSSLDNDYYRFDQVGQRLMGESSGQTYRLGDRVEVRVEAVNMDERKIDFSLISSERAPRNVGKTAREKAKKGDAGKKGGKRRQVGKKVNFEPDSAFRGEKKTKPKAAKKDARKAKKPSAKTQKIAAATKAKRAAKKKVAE

RNase R Δ3H = biological target: T3, RNase R Δ3H (Escherichia coli BL21(DE3), UniProt P21499 1-813, del487-545)
T3 sequence: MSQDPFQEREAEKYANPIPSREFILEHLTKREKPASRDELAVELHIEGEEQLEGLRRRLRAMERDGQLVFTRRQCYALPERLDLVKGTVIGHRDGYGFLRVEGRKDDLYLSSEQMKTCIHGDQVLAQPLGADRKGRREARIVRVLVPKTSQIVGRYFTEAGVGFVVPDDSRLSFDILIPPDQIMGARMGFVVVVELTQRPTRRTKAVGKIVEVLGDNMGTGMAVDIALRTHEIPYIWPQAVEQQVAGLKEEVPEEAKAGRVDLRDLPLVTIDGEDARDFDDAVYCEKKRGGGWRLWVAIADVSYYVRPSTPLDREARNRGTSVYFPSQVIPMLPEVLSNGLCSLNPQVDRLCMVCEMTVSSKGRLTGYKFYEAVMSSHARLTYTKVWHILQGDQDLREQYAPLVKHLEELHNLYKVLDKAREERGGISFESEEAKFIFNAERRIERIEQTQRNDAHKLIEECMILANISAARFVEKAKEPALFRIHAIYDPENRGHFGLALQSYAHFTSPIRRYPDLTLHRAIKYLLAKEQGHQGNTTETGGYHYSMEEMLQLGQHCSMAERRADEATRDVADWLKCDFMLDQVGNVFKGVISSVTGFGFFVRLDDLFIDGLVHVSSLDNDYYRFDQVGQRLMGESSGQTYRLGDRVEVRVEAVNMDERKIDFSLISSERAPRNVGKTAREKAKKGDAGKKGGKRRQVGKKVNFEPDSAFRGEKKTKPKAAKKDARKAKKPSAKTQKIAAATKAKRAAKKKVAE

RNase R ΔHTH-K = biological target: T4, RNase R ΔHTH-K (Escherichia coli BL21(DE3), UniProt P21499 87-725)
T4 sequence: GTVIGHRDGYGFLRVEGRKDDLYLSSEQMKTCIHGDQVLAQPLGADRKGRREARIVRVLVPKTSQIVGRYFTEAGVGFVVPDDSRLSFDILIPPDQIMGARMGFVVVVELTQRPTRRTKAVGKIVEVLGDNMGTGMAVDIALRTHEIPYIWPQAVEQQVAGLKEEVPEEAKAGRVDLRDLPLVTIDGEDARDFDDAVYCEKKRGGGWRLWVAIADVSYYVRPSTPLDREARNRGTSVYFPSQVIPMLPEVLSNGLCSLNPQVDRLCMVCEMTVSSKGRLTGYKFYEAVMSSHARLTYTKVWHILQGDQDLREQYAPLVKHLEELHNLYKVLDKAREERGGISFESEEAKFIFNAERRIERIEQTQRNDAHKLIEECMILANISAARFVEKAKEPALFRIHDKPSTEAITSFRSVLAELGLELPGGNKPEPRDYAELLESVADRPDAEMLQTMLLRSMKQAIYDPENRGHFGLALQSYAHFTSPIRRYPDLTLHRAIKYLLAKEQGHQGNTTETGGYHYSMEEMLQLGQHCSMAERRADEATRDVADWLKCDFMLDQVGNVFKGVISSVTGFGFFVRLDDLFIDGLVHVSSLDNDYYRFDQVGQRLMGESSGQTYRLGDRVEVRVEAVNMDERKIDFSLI

Q: What does the source list for AAAAAAAAAAAAAAAAAAAAAAAAAAAAAA (ssRNA) [Cy3-poly(A)30 ssRNA]?
A: Kd (RNase R 1H): 9.9 ± 1 nM; Kd (RNase R (full-length)): 11.2 ± 1.2 nM; Kd (RNase R Δ3H): 23.8 ± 2.6 nM; Kd (RNase R ΔHTH-K): 8.6 ± 1 nM
